± gives the standard error. This sample holds only a part of the variants without activity.
B1: glmS ribozyme (parent)
chain: AUAAAAGCGCCAGAACUACAGAAAUGUAGUUGACGAGGAGGAGGUUUAUCGAAUUUUCGGCGGAUGCCUCCAAA

Tests used:
Conditions in all cases: with glucosamine-6-phosphate
[1] = variants of: B1; assay: self-cleavage kobs at 640 uM GlcN6P; higher = faster cleavage; RNA array
In short: (§1)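 Tiles bearing barcoded ribozyme variants, transcribed in situ by E. coli RNA polymerase on sequenced MiSeq chips, were imaged over ~14 h at 37 °C using a hybridised Cy3 probe. Glucosamine-6-phosphate was supplied at 40 μM to 10 mM in HEPES/KCl/Mg(OAc)2 buffer. kobs came from one- or two-exponential decay fits to normalised per-tile medians, and weighted Michaelis–Menten fits then provided kcat and KM.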

[2] = variants of: B1; assay: self-cleavage kobs at 2500 uM GlcN6P; higher = faster cleavage; RNA array
In short: as §1

[3] = variants of: B1; assay: self-cleavage kobs at 10000 uM GlcN6P; higher = faster cleavage; RNA array
In short: as §1

Variant: C19A U30A
- self-cleavage kobs at 640 uM GlcN6P [1]: 0.000125 ± 2.9e-05 s⁻¹
- self-cleavage kobs at 2500 uM GlcN6P [2]: 0.000235 ± 4.3e-05 s⁻¹

Variant: C8A C11U A36G
- self-cleavage kobs at 640 uM GlcN6P [1]: < 1e-05 s⁻¹
- self-cleavage kobs at 2500 uM GlcN6P [2]: < 1e-05 s⁻¹

Variant: A42U U47A U54C
- self-cleavage kobs at 640 uM GlcN6P [1]: 3.85e-05 ± 9.6e-06 s⁻¹

Variant: A14C C61U C68G
- self-cleavage kobs at 640 uM GlcN6P [1]: 0.0001 ± 3.3e-05 s⁻¹

Variant: U45G G66C
- self-cleavage kobs at 640 uM GlcN6P [1]: 0.000414 ± 0.00017 s⁻¹
- self-cleavage kobs at 2500 uM GlcN6P [2]: 0.000927 ± 0.00042 s⁻¹
- self-cleavage kobs at 10000 uM GlcN6P [3]: 0.00369 ± 0.00067 s⁻¹

Variant: A14G A33G G41U A48C U69G
- self-cleavage kobs at 640 uM GlcN6P [1]: < 1e-05 s⁻¹
- self-cleavage kobs at 2500 uM GlcN6P [2]: < 1e-05 s⁻¹

Variant: G35C A36U G38A
- self-cleavage kobs at 640 uM GlcN6P [1]: < 1e-05 s⁻¹

Variant: C11U A48G C68U
- self-cleavage kobs at 640 uM GlcN6P [1]: < 1e-05 s⁻¹

Variant: U31A A36C G37U U49C
- self-cleavage kobs at 640 uM GlcN6P [1]: < 1e-05 s⁻¹

Variant: C8U A12U G51U
- self-cleavage kobs at 640 uM GlcN6P [1]: < 1e-05 s⁻¹
- self-cleavage kobs at 2500 uM GlcN6P [2]: < 1e-05 s⁻¹

Variant: C34G A39U U49G
- self-cleavage kobs at 640 uM GlcN6P [1]: < 1e-05 s⁻¹

Variant: G40A U45A C70U
- self-cleavage kobs at 640 uM GlcN6P [1]: 4.7e-05 ± 2.2e-05 s⁻¹
- self-cleavage kobs at 2500 uM GlcN6P [2]: 7.49e-05 ± 2.1e-05 s⁻¹

Variant: A33G C34U G40A A42U C68A
- self-cleavage kobs at 640 uM GlcN6P [1]: < 1e-05 s⁻¹
- self-cleavage kobs at 2500 uM GlcN6P [2]: < 1e-05 s⁻¹

Variant: U46A U55C
- self-cleavage kobs at 640 uM GlcN6P [1]: 0.00095 ± 0.00025 s⁻¹
- self-cleavage kobs at 2500 uM GlcN6P [2]: 0.00269 ± 0.00043 s⁻¹
- self-cleavage kobs at 10000 uM GlcN6P [3]: 0.0029 ± 0.00062 s⁻¹

Variant: C34A G35U A36U
- self-cleavage kobs at 640 uM GlcN6P [1]: < 1e-05 s⁻¹
- self-cleavage kobs at 10000 uM GlcN6P [3]: < 1e-05 s⁻¹

Variant: A42C C67U C71G
- self-cleavage kobs at 640 uM GlcN6P [1]: < 1e-05 s⁻¹

Variant: A33G A39G G41A
- self-cleavage kobs at 640 uM GlcN6P [1]: < 1e-05 s⁻¹

Variant: G7A U55C C58G
- self-cleavage kobs at 640 uM GlcN6P [1]: < 1e-05 s⁻¹

Variant: U31G G44U U46G C58A
- self-cleavage kobs at 640 uM GlcN6P [1]: < 1e-05 s⁻¹

Variant: C8A C16A G63U A64G U65C C71G
- self-cleavage kobs at 640 uM GlcN6P [1]: < 1e-05 s⁻¹

Variant: G35A C50U G62C C68G
- self-cleavage kobs at 640 uM GlcN6P [1]: < 1e-05 s⁻¹

Variant: G38A U54G C71U
- self-cleavage kobs at 640 uM GlcN6P [1]: < 1e-05 s⁻¹

Variant: U47C U55A
- self-cleavage kobs at 640 uM GlcN6P [1]: 0.00113 ± 0.00019 s⁻¹
- self-cleavage kobs at 2500 uM GlcN6P [2]: 0.00273 ± 0.00077 s⁻¹
- self-cleavage kobs at 10000 uM GlcN6P [3]: 0.00496 ± 0.0011 s⁻¹

Variant: U31A A53G U65A C70A
- self-cleavage kobs at 640 uM GlcN6P [1]: 6.1e-05 ± 2.4e-05 s⁻¹

Variant: U45G U49C
- self-cleavage kobs at 640 uM GlcN6P [1]: < 1e-05 s⁻¹
- self-cleavage kobs at 10000 uM GlcN6P [3]: < 1e-05 s⁻¹

Variant: U49C C58U G66A
- self-cleavage kobs at 640 uM GlcN6P [1]: < 1e-05 s⁻¹

Variant: A12C A15U A39G
- self-cleavage kobs at 640 uM GlcN6P [1]: 0.000865 ± 0.00025 s⁻¹
- self-cleavage kobs at 2500 uM GlcN6P [2]: 0.00201 ± 0.00075 s⁻¹
- self-cleavage kobs at 10000 uM GlcN6P [3]: 0.003 ± 0.00075 s⁻¹

Variant: G40C G41A G43U
- self-cleavage kobs at 640 uM GlcN6P [1]: < 1e-05 s⁻¹

Variant: G51U U56A G63U
- self-cleavage kobs at 640 uM GlcN6P [1]: < 1e-05 s⁻¹
- self-cleavage kobs at 2500 uM GlcN6P [2]: < 1e-05 s⁻¹

Variant: C11A G63A
- self-cleavage kobs at 640 uM GlcN6P [1]: < 1e-05 s⁻¹
- self-cleavage kobs at 2500 uM GlcN6P [2]: < 1e-05 s⁻¹
- self-cleavage kobs at 10000 uM GlcN6P [3]: < 1e-05 s⁻¹

Variant: C10U C50G C68U C71A
- self-cleavage kobs at 640 uM GlcN6P [1]: 9.29e-05 ± 2.6e-05 s⁻¹
- self-cleavage kobs at 2500 uM GlcN6P [2]: 0.000111 ± 2.9e-05 s⁻¹

Variant: G9U C19A G62U G63U
- self-cleavage kobs at 640 uM GlcN6P [1]: < 1e-05 s⁻¹

Variant: C10A A36C U46A
- self-cleavage kobs at 640 uM GlcN6P [1]: < 1e-05 s⁻¹
- self-cleavage kobs at 2500 uM GlcN6P [2]: < 1e-05 s⁻¹
- self-cleavage kobs at 10000 uM GlcN6P [3]: < 1e-05 s⁻¹

Variant: A12U G35U
- self-cleavage kobs at 640 uM GlcN6P [1]: < 1e-05 s⁻¹

Variant: U47C U49G C50U
- self-cleavage kobs at 640 uM GlcN6P [1]: < 1e-05 s⁻¹
- self-cleavage kobs at 2500 uM GlcN6P [2]: < 1e-05 s⁻¹

Variant: G9A A42C G44A
- self-cleavage kobs at 640 uM GlcN6P [1]: < 1e-05 s⁻¹
- self-cleavage kobs at 2500 uM GlcN6P [2]: < 1e-05 s⁻¹

Variant: A12U C67G C71A
- self-cleavage kobs at 640 uM GlcN6P [1]: < 1e-05 s⁻¹

Variant: G41U U46G A48C U49C
- self-cleavage kobs at 640 uM GlcN6P [1]: < 1e-05 s⁻¹

Variant: U30A U69G C71A
- self-cleavage kobs at 640 uM GlcN6P [1]: 0.00266 ± 0.00078 s⁻¹

Variant: G43A A53G G60U
- self-cleavage kobs at 640 uM GlcN6P [1]: < 1e-05 s⁻¹
- self-cleavage kobs at 2500 uM GlcN6P [2]: < 1e-05 s⁻¹

Variant: G29U A33U G43C G60C G62U C71G
- self-cleavage kobs at 640 uM GlcN6P [1]: < 1e-05 s⁻¹
- self-cleavage kobs at 2500 uM GlcN6P [2]: < 1e-05 s⁻¹

Variant: G9C A15C G32U G40C G66C
- self-cleavage kobs at 640 uM GlcN6P [1]: < 1e-05 s⁻¹

Variant: A42U U69C C70A
- self-cleavage kobs at 640 uM GlcN6P [1]: 0.0004 ± 0.00011 s⁻¹
- self-cleavage kobs at 2500 uM GlcN6P [2]: 0.000308 ± 9.7e-05 s⁻¹

Variant: U45G U47A A52G C68G
- self-cleavage kobs at 640 uM GlcN6P [1]: < 1e-05 s⁻¹

Variant: A14C U46G G66A
- self-cleavage kobs at 640 uM GlcN6P [1]: 0.000298 ± 5.1e-05 s⁻¹
- self-cleavage kobs at 2500 uM GlcN6P [2]: 0.000166 ± 3.6e-05 s⁻¹

Variant: C10A U54G U65C
- self-cleavage kobs at 640 uM GlcN6P [1]: < 1e-05 s⁻¹

Variant: A12U U47G A52U C61U
- self-cleavage kobs at 640 uM GlcN6P [1]: < 1e-05 s⁻¹

Variant: C10U A39U G41U
- self-cleavage kobs at 640 uM GlcN6P [1]: < 1e-05 s⁻¹

Variant: G51A U54C U55G
- self-cleavage kobs at 640 uM GlcN6P [1]: < 1e-05 s⁻¹

Variant: G35U G40U G63U C71G
- self-cleavage kobs at 640 uM GlcN6P [1]: < 1e-05 s⁻¹

Variant: A14U C16A G35C G43C A53C C61U
- self-cleavage kobs at 640 uM GlcN6P [1]: < 1e-05 s⁻¹
- self-cleavage kobs at 2500 uM GlcN6P [2]: < 1e-05 s⁻¹

Variant: G35A A48C U54A C70A
- self-cleavage kobs at 640 uM GlcN6P [1]: < 1e-05 s⁻¹
- self-cleavage kobs at 10000 uM GlcN6P [3]: < 1e-05 s⁻¹

Variant: U30G C34U G35A C68A
- self-cleavage kobs at 640 uM GlcN6P [1]: 0.00169 ± 0.00067 s⁻¹

Variant: C11A A53G G63A
- self-cleavage kobs at 640 uM GlcN6P [1]: < 1e-05 s⁻¹

Variant: G13C A14G U56C
- self-cleavage kobs at 640 uM GlcN6P [1]: 6.74e-05 ± 1.6e-05 s⁻¹
- self-cleavage kobs at 2500 uM GlcN6P [2]: 0.000185 ± 4.6e-05 s⁻¹

Variant: A42G U55G A64G C71G
- self-cleavage kobs at 640 uM GlcN6P [1]: 0.000116 ± 3.7e-05 s⁻¹
- self-cleavage kobs at 2500 uM GlcN6P [2]: 5.98e-05 ± 2e-05 s⁻¹

Variant: U49A G66A
- self-cleavage kobs at 640 uM GlcN6P [1]: < 1e-05 s⁻¹

Variant: G44U G60C G62U
- self-cleavage kobs at 640 uM GlcN6P [1]: < 1e-05 s⁻¹
- self-cleavage kobs at 2500 uM GlcN6P [2]: < 1e-05 s⁻¹
- self-cleavage kobs at 10000 uM GlcN6P [3]: < 1e-05 s⁻¹

Variant: G9A G35A C58U C71U
- self-cleavage kobs at 640 uM GlcN6P [1]: < 1e-05 s⁻¹

Variant: A6U G32C C67G
- self-cleavage kobs at 640 uM GlcN6P [1]: < 1e-05 s⁻¹
- self-cleavage kobs at 2500 uM GlcN6P [2]: < 1e-05 s⁻¹

Variant: U30C C67A C70G
- self-cleavage kobs at 640 uM GlcN6P [1]: 6.32e-05 ± 1.4e-05 s⁻¹

Variant: C10A G51C A52U C70U
- self-cleavage kobs at 640 uM GlcN6P [1]: < 1e-05 s⁻¹

Variant: G40A U45C C50A G60A C67A
- self-cleavage kobs at 640 uM GlcN6P [1]: < 1e-05 s⁻¹
- self-cleavage kobs at 2500 uM GlcN6P [2]: < 1e-05 s⁻¹

Variant: C10U G21U G62A
- self-cleavage kobs at 640 uM GlcN6P [1]: < 1e-05 s⁻¹
- self-cleavage kobs at 10000 uM GlcN6P [3]: < 1e-05 s⁻¹

Variant: C8G G41U C61A
- self-cleavage kobs at 640 uM GlcN6P [1]: < 1e-05 s⁻¹

Variant: G32U U55G C71U
- self-cleavage kobs at 640 uM GlcN6P [1]: 0.00014 ± 3.5e-05 s⁻¹
- self-cleavage kobs at 10000 uM GlcN6P [3]: 0.000518 ± 0.00011 s⁻¹

Variant: G35A U46C U65A
- self-cleavage kobs at 640 uM GlcN6P [1]: < 1e-05 s⁻¹
- self-cleavage kobs at 10000 uM GlcN6P [3]: < 1e-05 s⁻¹
